B1: Analog 084 (peptide)
peptide: Y[Aib]EGTFTSDYSEYMEKEAVREFIAWLVKGK(Palmitoyl)-NH2
modifications: lactam 12-16; N-terminus assumed
SMILES: CCCCCCCCCCCCCCCC(=O)NCCCC[C@H](NC(=O)CNC(=O)[C@H](CCCCN)NC(=O)[C@@H](NC(=O)[C@H](CC(C)C)NC(=O)[C@H](Cc1c[nH]c2ccccc12)NC(=O)[C@H](C)NC(=O)[C@@H](NC(=O)[C@H](Cc1ccccc1)NC(=O)[C@H](CCC(=O)O)NC(=O)[C@H](CCCNC(=N)N)NC(=O)[C@@H](NC(=O)[C@H](C)NC(=O)[C@H](CCC(=O)O)NC(=O)[C@@H]1CCCCNC(=O)CC[C@H](NC(=O)[C@H](CO)NC(=O)[C@H](Cc2ccc(O)cc2)NC(=O)[C@H](CC(=O)O)NC(=O)[C@H](CO)NC(=O)[C@@H](NC(=O)[C@H](Cc2ccccc2)NC(=O)[C@@H](NC(=O)CNC(=O)[C@H](CCC(=O)O)NC(=O)C(C)(C)NC(=O)[C@@H](N)Cc2ccc(O)cc2)[C@@H](C)O)[C@@H](C)O)C(=O)N[C@@H](Cc2ccc(O)cc2)C(=O)N[C@@H](CCSC)C(=O)N[C@@H](CCC(=O)O)C(=O)N1)C(C)C)[C@@H](C)CC)C(C)C)C(N)=O
B2: Analog 010 (peptide)
peptide: Y[Aib]EGTFISDYSIA[Nle]EKIHQQDFVNWLLAQ-NH2
B3: Analog 006 (peptide)
peptide: Y[Aib]EGTFISDYSIA[Met(O)]EKIHQQDFVNWLLAQ-NH2
modifications: N-terminus assumed
SMILES: CC[C@H](C)[C@H](NC(=O)[C@H](CO)NC(=O)[C@H](Cc1ccc(O)cc1)NC(=O)[C@H](CC(=O)O)NC(=O)[C@H](CO)NC(=O)[C@@H](NC(=O)[C@H](Cc1ccccc1)NC(=O)[C@@H](NC(=O)CNC(=O)[C@H](CCC(=O)O)NC(=O)C(C)(C)NC(=O)[C@@H](N)Cc1ccc(O)cc1)[C@@H](C)O)[C@@H](C)CC)C(=O)N[C@@H](C)C(=O)N[C@@H](CCS(C)=O)C(=O)N[C@@H](CCC(=O)O)C(=O)N[C@@H](CCCCN)C(=O)N[C@H](C(=O)N[C@@H](Cc1c[nH]cn1)C(=O)N[C@@H](CCC(N)=O)C(=O)N[C@@H](CCC(N)=O)C(=O)N[C@@H](CC(=O)O)C(=O)N[C@@H](Cc1ccccc1)C(=O)N[C@H](C(=O)N[C@@H](CC(N)=O)C(=O)N[C@@H](Cc1c[nH]c2ccccc12)C(=O)N[C@@H](CC(C)C)C(=O)N[C@@H](CC(C)C)C(=O)N[C@@H](C)C(=O)N[C@@H](CCC(N)=O)C(N)=O)C(C)C)[C@@H](C)CC
B4: Analog 016 (peptide)
peptide: Y[Aib]EGTFTSDYSI[Phe(4-NO2)]MEKIHQQDFVNWLLAQ-NH2
B5: Analog 021 (peptide)
peptide: Y[Aib]EGTFTSDYSIY[Nle]EKIHQQDFVNWLVRQ-NH2
B6: Analog 003 (peptide)
peptide: Y[Aib]EGTFTSDYSIYMEKIHQQDFVNWLLAQ-NH2
B7: Analog 002 (peptide)
peptide: Y[Aib]EGTFTSDYSIAMEKIHQQDFVNWLLAQ-NH2
B8: Analog 005 (peptide)
peptide: Y[Aib]EGTFTSDYSI[Phe(4-NO2)][Met(O)]EKIHQQDFVNWLLAQ-NH2
B9: Analog 075 (peptide)
peptide: Y[Aib]EGTFTSDYSIYMEKEAVREFIAWLVKGRRRRRR-NH2
modifications: N-terminus assumed
SMILES: CC[C@H](C)[C@H](NC(=O)[C@H](Cc1ccccc1)NC(=O)[C@H](CCC(=O)O)NC(=O)[C@H](CCCNC(=N)N)NC(=O)[C@@H](NC(=O)[C@H](C)NC(=O)[C@H](CCC(=O)O)NC(=O)[C@H](CCCCN)NC(=O)[C@H](CCC(=O)O)NC(=O)[C@H](CCSC)NC(=O)[C@H](Cc1ccc(O)cc1)NC(=O)[C@@H](NC(=O)[C@H](CO)NC(=O)[C@H](Cc1ccc(O)cc1)NC(=O)[C@H](CC(=O)O)NC(=O)[C@H](CO)NC(=O)[C@@H](NC(=O)[C@H](Cc1ccccc1)NC(=O)[C@@H](NC(=O)CNC(=O)[C@H](CCC(=O)O)NC(=O)C(C)(C)NC(=O)[C@@H](N)Cc1ccc(O)cc1)[C@@H](C)O)[C@@H](C)O)[C@@H](C)CC)C(C)C)C(=O)N[C@@H](C)C(=O)N[C@@H](Cc1c[nH]c2ccccc12)C(=O)N[C@@H](CC(C)C)C(=O)N[C@H](C(=O)N[C@@H](CCCCN)C(=O)NCC(=O)N[C@@H](CCCNC(=N)N)C(=O)N[C@@H](CCCNC(=N)N)C(=O)N[C@@H](CCCNC(=N)N)C(=O)N[C@@H](CCCNC(=N)N)C(=O)N[C@@H](CCCNC(=N)N)C(=O)N[C@@H](CCCNC(=N)N)C(N)=O)C(C)C
B10: Analog 011 (peptide)
peptide: Y[Aib]EGTFTSDYSIF[Nle]EKIHQQDFVNWLLAQ-NH2
B11: Analog 008 (peptide)
peptide: Y[Aib]EGTFTSDYSI[Phe(4-NO2)][Nle]EKIHQQDFVNWLLAQ-NH2
B12: Analog 007 (peptide)
peptide: Y[Aib]EGTFTSDYSIF[Met(O)]EKIHQQDFVNWLLAQ-NH2
B13: Analog 004 (peptide)
peptide: Y[Aib]EGTFTSDYSI[Phe(4-F)][Met(O)]EKIHQQDFVNWLLAQ-NH2
B14: Analog 020 (peptide)
peptide: Y[Aib]EGTFTSDYSIY[Nle]EKEAQQDFVNWLLAQ-NH2
B15: Analog 009 (peptide)
peptide: Y[Aib]EGTFTSDYSI[Phg][Nle]EKIHQQDFVNWLLAQ-NH2
B16: Analog 067 (peptide)
peptide: Y[Aib]EGTFTSDYSIYMEKEAVK(Palmitoyl)EFIAWLVKG-NH2
modifications: N-terminus assumed
SMILES: CCCCCCCCCCCCCCCC(=O)NCCCC[C@H](NC(=O)[C@@H](NC(=O)[C@H](C)NC(=O)[C@H](CCC(=O)O)NC(=O)[C@H](CCCCN)NC(=O)[C@H](CCC(=O)O)NC(=O)[C@H](CCSC)NC(=O)[C@H](Cc1ccc(O)cc1)NC(=O)[C@@H](NC(=O)[C@H](CO)NC(=O)[C@H](Cc1ccc(O)cc1)NC(=O)[C@H](CC(=O)O)NC(=O)[C@H](CO)NC(=O)[C@@H](NC(=O)[C@H](Cc1ccccc1)NC(=O)[C@@H](NC(=O)CNC(=O)[C@H](CCC(=O)O)NC(=O)C(C)(C)NC(=O)[C@@H](N)Cc1ccc(O)cc1)[C@@H](C)O)[C@@H](C)O)[C@@H](C)CC)C(C)C)C(=O)N[C@@H](CCC(=O)O)C(=O)N[C@@H](Cc1ccccc1)C(=O)N[C@H](C(=O)N[C@@H](C)C(=O)N[C@@H](Cc1c[nH]c2ccccc12)C(=O)N[C@@H](CC(C)C)C(=O)N[C@H](C(=O)N[C@@H](CCCCN)C(=O)NCC(N)=O)C(C)C)[C@@H](C)CC

The source of these data is patent US20140162945A1 (BEIJING HANMI PHARMACEUTICAL, published 2014).

Bridges are numbered along the chain shown (N, C = ends). Where no end group is shown, it is not given here. [ ]: non-standard residue; d: D form. The star is where a group is joined. Phe(4-NO2) = N[C@@H](Cc1ccc([N+](=O)[O-])cc1)C(=O)O; Phe(4-F) = N[C@@H](Cc1ccc(F)cc1)C(=O)O; Palmitoyl = CCCCCCCCCCCCCCCC(=O)*; Met(O) = CS(=O)CC[C@H](N)C(=O)O; Phg = N[C@H](C(=O)O)c1ccccc1; Nle = CCCC[C@H](N)C(=O)O; Aib = CC(C)(N)C(=O)O Where only a bound is given, the exact number is not on record here.

For one assay, the target named is human GLP-1 receptor (human, UniProt P43220 24-463). Nature of the assay: cell-based or functional assay.
human GLP-1 receptor, sequence (P43220 24-463): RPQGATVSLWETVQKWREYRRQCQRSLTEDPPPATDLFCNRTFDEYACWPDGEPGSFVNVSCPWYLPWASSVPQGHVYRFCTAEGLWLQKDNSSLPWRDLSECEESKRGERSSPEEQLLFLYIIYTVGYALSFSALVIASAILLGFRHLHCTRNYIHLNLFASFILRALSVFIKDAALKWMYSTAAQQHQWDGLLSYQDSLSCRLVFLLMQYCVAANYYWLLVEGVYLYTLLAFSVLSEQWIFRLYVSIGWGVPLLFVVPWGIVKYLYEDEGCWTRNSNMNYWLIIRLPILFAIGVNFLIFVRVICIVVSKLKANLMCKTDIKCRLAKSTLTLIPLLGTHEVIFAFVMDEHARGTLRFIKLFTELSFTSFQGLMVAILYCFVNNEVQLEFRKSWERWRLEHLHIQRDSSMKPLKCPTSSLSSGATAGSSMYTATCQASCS
B1: the “EC50, GLP-1 Receptor cAMP induction” value was determined as 0.0048 µM and the “Relative Potency, GLP-1 Receptor” value came out at 22.2%.

Regarding B2, the “EC50, GLP-1 Receptor cAMP induction” value is greater than 2 µM.

For B3, the “EC50, GLP-1 Receptor cAMP induction” value was greater than 2 µM.

For B4, the “EC50, GLP-1 Receptor cAMP induction” value was 1.67 µM.

For B5, the “EC50, GLP-1 Receptor cAMP induction” value amounted to 0.217 µM.

Take B6: the “EC50, GLP-1 Receptor cAMP induction” value is 0.483 µM.

As for B7, the “EC50, GLP-1 Receptor cAMP induction” value came to 0.995 µM.

With B8, the “EC50, GLP-1 Receptor cAMP induction” value was greater than 2 µM.

Consider B9, for which the “EC50, GLP-1 Receptor cAMP induction” value is 0.00141 µM and the “Relative Potency, GLP-1 Receptor” value was 77.7%.

On to B10, for which the “EC50, GLP-1 Receptor cAMP induction” value amounted to 1.48 µM.

Regarding B11, the “EC50, GLP-1 Receptor cAMP induction” value was 1.58 µM.

Regarding B12, the “EC50, GLP-1 Receptor cAMP induction” value stood at 0.836 µM.

Regarding B13, the “EC50, GLP-1 Receptor cAMP induction” value came out at 0.926 µM.

Regarding B14, the “EC50, GLP-1 Receptor cAMP induction” value was determined as 0.83 µM.

For B15, the “EC50, GLP-1 Receptor cAMP induction” value was greater than 2 µM.

Consider B16, for which the “EC50, GLP-1 Receptor cAMP induction” value stood at 0.00787 µM and the “Relative Potency, GLP-1 Receptor” value was determined as 13.9%.

The target in a further assay is T1, human GIP receptor (human, UniProt P48546 22-466).
T1 sequence (looked up): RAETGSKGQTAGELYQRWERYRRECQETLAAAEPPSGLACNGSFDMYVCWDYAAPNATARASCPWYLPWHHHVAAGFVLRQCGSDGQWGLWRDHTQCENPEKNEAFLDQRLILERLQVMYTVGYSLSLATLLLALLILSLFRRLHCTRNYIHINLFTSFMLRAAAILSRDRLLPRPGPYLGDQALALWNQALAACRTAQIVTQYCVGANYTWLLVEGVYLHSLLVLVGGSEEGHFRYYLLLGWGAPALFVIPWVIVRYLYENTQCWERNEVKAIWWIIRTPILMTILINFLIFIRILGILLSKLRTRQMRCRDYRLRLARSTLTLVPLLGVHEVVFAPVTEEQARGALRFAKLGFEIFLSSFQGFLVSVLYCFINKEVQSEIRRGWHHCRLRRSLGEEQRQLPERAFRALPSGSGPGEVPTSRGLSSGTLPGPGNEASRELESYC
Nature of the assay: cell-based or functional assay.
In the case of B1, the “EC50, GIP Receptor cAMP induction” value was determined as 0.00134 µM and the “Relative Potency, GIP Receptor” value is 8.8%.

With B2, the “EC50, GIP Receptor cAMP induction” value came out at 0.0115 µM.

For B3, the “EC50, GIP Receptor cAMP induction” value was determined as 0.00666 µM.

Take B4: the “EC50, GIP Receptor cAMP induction” value is 0.0183 µM.

For the molecule B5, the “EC50, GIP Receptor cAMP induction” value was 0.0023 µM and the “Relative Potency, GIP Receptor” value was found to be 21.7%.

As to B6, the “EC50, GIP Receptor cAMP induction” value stood at 0.00018 µM and the “Relative Potency, GIP Receptor” value turned out to be 77.7%.

B7: the “EC50, GIP Receptor cAMP induction” value was 0.0111 µM.

Take B8: the “EC50, GIP Receptor cAMP induction” value was 0.0765 µM.

With B9, the “EC50, GIP Receptor cAMP induction” value was found to be 0.00145 µM and the “Relative Potency, GIP Receptor” value turned out to be 8.3%.

As for B10, the “EC50, GIP Receptor cAMP induction” value was 0.693 µM.

As for B11, the “EC50, GIP Receptor cAMP induction” value amounted to 0.0242 µM.

With B12, the “EC50, GIP Receptor cAMP induction” value was 0.019 µM.

On to B13, for which the “EC50, GIP Receptor cAMP induction” value came out at 0.0146 µM.

For B14, the “EC50, GIP Receptor cAMP induction” value is 0.00027 µM and the “Relative Potency, GIP Receptor” value amounted to 51.8%.

Consider B15, for which the “EC50, GIP Receptor cAMP induction” value amounted to 0.0222 µM.

As to B16, the “EC50, GIP Receptor cAMP induction” value was found to be 0.0037 µM and the “Relative Potency, GIP Receptor” value was 4.6%.
